Measured values reported in article PMC10190533, “Engineering Escherichia coli to Utilize Erythritol as Sole Carbon Source” (Advanced Science, 2022).

Biological target: the molecule itself
Experiment: SEC + native gel or EMSA

B1: eryD, erythritol-binding transcriptional repressor from Ochrobactrum spp. (natural protein)
chain: MADADDSLALRAAWLHFVAGMTQSAVAKRLGLPSVKAHRLIAKAVADGAVKVTIDGDITECIDLENRLADLYGLDYCEVAPDIGEEGLPLMALGHAGANFMRREIEHGDHEVIGIGHGRTLSAAVGYMPRVMANDLRFVSLLGGLTRNFAANPHDVMHRIAEKTGMPAYVMPVPFFANTAEDREVLLAQRGVTTVFDMGCRAELKIVGIGTVDAQAQLVTSGMIELGEVEEIANLGGVGEMLGHFFNANGQWLETALTGRTIAASVENADMSRIVALAGGLSKVDAIRAVLKSGRLYGLITDERTAKALIGQPNGK
notes: also called erythritol-responding genetic repressor eryD
  stoichiometry N: 4
